Assay results from US12365732.
Values belong to the substance of their own block, whether it stands above or below them.

Tests used:
[1] = target: cynomolgus monkey CD96 on cynomolgus monkey PBMCs (cynomolgus monkey); assay: FACS, Ab 16 nM
[2] = target: human CD96 on primary human immune cells (PBMCs, NK cells, CD4+ T cells) (human) (UniProt P40200); assay: FACS, Ab 16 nM
[3] = target: cynomolgus monkey CD96 on cynomolgus monkey PBMCs (cynomolgus monkey); assay: FACS, Ab 80 nM
[4] = target: human CD96 on primary human immune cells (PBMCs, NK cells, CD4+ T cells) (human) (UniProt P40200); assay: FACS, Ab 80 nM
[5] = target: cynomolgus monkey CD96 on cynomolgus monkey PBMCs (cynomolgus monkey); assay: FACS, Ab 3.2 nM
[6] = target: human CD96 on primary human immune cells (PBMCs, NK cells, CD4+ T cells) (human) (UniProt P40200); assay: FACS, Ab 3.2 nM
[7] = target: cynomolgus monkey CD96 on cynomolgus monkey PBMCs (cynomolgus monkey); assay: FACS, Ab 0.64 nM
[8] = target: human CD96 on primary human immune cells (PBMCs, NK cells, CD4+ T cells) (human) (UniProt P40200); assay: FACS, Ab 0.64 nM
[9] = target: cynomolgus monkey CD96 on cynomolgus monkey PBMCs (cynomolgus monkey); assay: FACS, Ab 0.128 nM
[10] = target: human CD96 on primary human immune cells (PBMCs, NK cells, CD4+ T cells) (human) (UniProt P40200); assay: FACS, Ab 0.128 nM
[11] = target: cynomolgus monkey CD96 on cynomolgus monkey PBMCs (cynomolgus monkey); assay: FACS, Ab 0.0256 nM
[12] = target: human CD96 on primary human immune cells (PBMCs, NK cells, CD4+ T cells) (human) (UniProt P40200); assay: FACS, Ab 0.0256 nM
[13] = target: cynomolgus monkey CD96 on cynomolgus monkey PBMCs (cynomolgus monkey); assay: FACS, Ab 0.00512 nM
[14] = target: human CD96 on primary human immune cells (PBMCs, NK cells, CD4+ T cells) (human) (UniProt P40200); assay: FACS, Ab 0.00512 nM
[15] = target: hu-CD96 isoform 2 on CHO cells (human) (UniProt P40200); assay: FACS, CD155-Fc-FLAG 10 nM, Ab 4 nM
[16] = target: hu-CD96 isoform 2 on CHO cells (human) (UniProt P40200); assay: FACS, CD155-Fc-FLAG 10 nM, Ab 20 nM
[17] = target: hu-CD96 isoform 2 on CHO cells (human) (UniProt P40200); assay: FACS, CD155-Fc-FLAG 10 nM, Ab 0.8 nM
[18] = target: hu-CD96 isoform 2 on CHO cells (human) (UniProt P40200); assay: FACS, CD155-Fc-FLAG 10 nM, Ab 100 nM
[19] = target: hu-CD96 isoform 2 on CHO cells (human) (UniProt P40200); assay: FACS, CD155-Fc-FLAG 10 nM, Ab 0.16 nM
[20] = target: hu-CD96 isoform 2 on CHO cells (human) (UniProt P40200); assay: FACS, CD155-Fc-FLAG 10 nM, Ab 0.032 nM
[21] = target: hu-CD96 isoform 2 on CHO cells (human) (UniProt P40200); assay: FACS, CD155-Fc-FLAG 10 nM, Ab 0.0064 nM
[22] = target: cy-CD226 His tag (cynomolgus monkey); assay: SPR 25C, biotin-CD226-His captured, IgG analyte
hu-CD226 His tag (human) = hu-CD226 His tag (human) (UniProt Q15762); assay: SPR 25C, biotin-CD226-His captured, IgG analyte
[23] = target: hu-CD96 isoform 1 on HEK293T cells (human) (UniProt P40200); assay: FACS, Ab 2 nM
[24] = target: hu-CD96 isoform 2 on CHO cells (human) (UniProt P40200); assay: FACS, Ab 2 nM
[25] = target: hu-CD96 isoform 1 on HEK293T cells (human) (UniProt P40200); assay: FACS, Ab 10 nM
[26] = target: hu-CD96 isoform 2 on CHO cells (human) (UniProt P40200); assay: FACS, Ab 10 nM
[27] = target: hu-CD96 isoform 1 on HEK293T cells (human) (UniProt P40200); assay: FACS, Ab 50 nM
[28] = target: hu-CD96 isoform 2 on CHO cells (human) (UniProt P40200); assay: FACS, Ab 50 nM
[29] = target: hu-CD96 isoform 1 on HEK293T cells (human) (UniProt P40200); assay: FACS, Ab 0.4 nM
[30] = target: hu-CD96 isoform 2 on CHO cells (human) (UniProt P40200); assay: FACS, Ab 0.4 nM
[31] = target: hu-CD96 isoform 1 on HEK293T cells (human) (UniProt P40200); assay: FACS, Ab 0.08 nM
[32] = target: hu-CD96 isoform 2 on CHO cells (human) (UniProt P40200); assay: FACS, Ab 0.08 nM
[33] = target: hu-CD96 isoform 1 on HEK293T cells (human) (UniProt P40200); assay: FACS, Ab 0.016 nM
[34] = target: hu-CD96 isoform 2 on CHO cells (human) (UniProt P40200); assay: FACS, Ab 0.016 nM
[35] = target: hu-CD96 isoform 2 on CHO cells (human) (UniProt P40200); assay: FACS, Ab 0.0032 nM
[36] = target: cynomolgus monkey CD96 on cynomolgus monkey PBMCs (cynomolgus monkey); assay: FACS, % positive curve
[37] = target: hu-CD96 isoform 2 on CHO cells (human) (UniProt P40200); assay: FACS, % positive curve
[38] = target: human CD96 on primary human immune cells (PBMCs, NK cells, CD4+ T cells) (human) (UniProt P40200); assay: FACS, % positive curve
[39] = target: human CD96 on primary human immune cells (PBMCs, NK cells, CD4+ T cells) (human) (UniProt P40200); assay: cell-based or functional assay
hu-CD96D1 D3-hFc (human) = assay: ELISA, coated CD96D1D3-hFc
[40] = target: hu-CD96 (soluble, isoform 2 extracellular domain) (human) (UniProt P40200); assay: SPR 25C, IgG captured, CD96 analyte
hu-CD96 Fc (human) = assay: SPR 37C, biotin-CD96-Fc captured, IgG analyte
[41] = target: hu-CD96 isoform 2 on CHO cells (human) (UniProt P40200); assay: FACS, blocks 10 nM CD155-Fc-FLAG binding to CD96-CHO
[42] = target: recombinant hu-CD96 (M1-M503-polyHis) (human) (UniProt P40200); assay: ELISA, blocks hu-CD96-his binding to coated CD155-hFc

hu-CD96 Fc (human), sequence (chain, as listed by the source): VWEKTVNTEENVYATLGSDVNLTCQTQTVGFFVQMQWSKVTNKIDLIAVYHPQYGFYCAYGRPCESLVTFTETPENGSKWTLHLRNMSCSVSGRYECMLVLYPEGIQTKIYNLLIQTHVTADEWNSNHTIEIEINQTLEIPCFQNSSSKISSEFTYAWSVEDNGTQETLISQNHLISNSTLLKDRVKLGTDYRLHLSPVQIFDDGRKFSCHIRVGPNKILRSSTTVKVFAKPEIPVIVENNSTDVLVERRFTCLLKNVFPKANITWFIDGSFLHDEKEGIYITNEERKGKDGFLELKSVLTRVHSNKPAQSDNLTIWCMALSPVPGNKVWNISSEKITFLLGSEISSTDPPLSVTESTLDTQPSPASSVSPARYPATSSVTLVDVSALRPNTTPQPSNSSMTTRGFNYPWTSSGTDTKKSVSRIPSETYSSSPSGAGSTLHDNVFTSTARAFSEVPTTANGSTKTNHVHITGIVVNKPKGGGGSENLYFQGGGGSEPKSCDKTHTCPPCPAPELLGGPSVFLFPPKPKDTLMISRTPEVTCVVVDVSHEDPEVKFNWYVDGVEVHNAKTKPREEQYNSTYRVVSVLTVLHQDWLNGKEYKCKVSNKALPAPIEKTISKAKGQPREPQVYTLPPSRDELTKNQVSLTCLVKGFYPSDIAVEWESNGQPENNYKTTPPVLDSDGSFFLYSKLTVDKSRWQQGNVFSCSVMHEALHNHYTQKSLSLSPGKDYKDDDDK
hu-CD226 His tag (human), sequence (Q15762 19-247 limits assumed): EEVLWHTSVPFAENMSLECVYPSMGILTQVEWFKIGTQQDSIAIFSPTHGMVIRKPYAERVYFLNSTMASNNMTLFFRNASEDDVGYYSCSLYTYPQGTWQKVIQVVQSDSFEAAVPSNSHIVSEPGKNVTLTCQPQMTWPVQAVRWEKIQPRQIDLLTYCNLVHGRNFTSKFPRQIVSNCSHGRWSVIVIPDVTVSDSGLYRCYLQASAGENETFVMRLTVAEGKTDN
cy-CD226 His tag (cynomolgus monkey), sequence (chain, as listed by the source): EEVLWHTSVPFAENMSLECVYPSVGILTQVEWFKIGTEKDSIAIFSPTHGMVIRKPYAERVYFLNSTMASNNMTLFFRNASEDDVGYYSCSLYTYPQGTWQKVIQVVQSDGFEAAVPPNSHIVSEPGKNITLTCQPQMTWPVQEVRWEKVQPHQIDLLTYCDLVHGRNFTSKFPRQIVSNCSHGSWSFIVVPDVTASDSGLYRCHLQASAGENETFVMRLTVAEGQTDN
hu-CD96D1 D3-hFc (human), sequence (chain, as listed by the source limits assumed): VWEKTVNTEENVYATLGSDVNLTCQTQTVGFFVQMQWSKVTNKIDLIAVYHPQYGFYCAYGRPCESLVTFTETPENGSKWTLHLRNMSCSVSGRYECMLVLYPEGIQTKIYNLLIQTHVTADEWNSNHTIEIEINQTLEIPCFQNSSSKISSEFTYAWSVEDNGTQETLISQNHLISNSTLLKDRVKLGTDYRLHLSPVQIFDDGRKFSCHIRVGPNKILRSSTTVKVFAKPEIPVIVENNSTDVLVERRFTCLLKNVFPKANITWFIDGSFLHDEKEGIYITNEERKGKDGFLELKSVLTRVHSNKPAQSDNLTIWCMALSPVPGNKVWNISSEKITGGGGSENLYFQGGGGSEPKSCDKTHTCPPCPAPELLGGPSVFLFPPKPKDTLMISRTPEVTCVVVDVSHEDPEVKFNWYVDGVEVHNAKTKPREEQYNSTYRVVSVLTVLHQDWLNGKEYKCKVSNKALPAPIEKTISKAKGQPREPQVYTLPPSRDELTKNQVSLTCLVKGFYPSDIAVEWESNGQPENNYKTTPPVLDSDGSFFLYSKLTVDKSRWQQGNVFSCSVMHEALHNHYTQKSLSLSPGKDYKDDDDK

% positive [1]: 0.64%
% positive [2]: 4.61%
% positive [3]: 2.36%
% positive [4]: 3.1%
% positive [5]: 1.15%
% positive [6]: 4.67%
% positive [7]: 0.59%
% positive [8]: 4.04%
% positive [9]: 0.31%
% positive [10]: 3.98%
% positive [11]: 0.57%
% positive [12]: 5.5%
% positive [13]: 0.41%
% positive [14]: 5.29%
CD155-Fc binding (MedFI) [15]: 63100 MedFI
CD155-Fc binding (MedFI) [16]: 57300 MedFI
CD155-Fc binding (MedFI) [17]: 58300 MedFI
CD155-Fc binding (MedFI) [18]: 51700 MedFI
CD155-Fc binding (MedFI) [19]: 59400 MedFI
CD155-Fc binding (MedFI) [20]: 52800 MedFI
CD155-Fc binding (MedFI) [21]: 47700 MedFI
Substance: hu-IgG1 control antibody

Kd [22]: 0.02 nM
Kd (hu-CD226 His tag (human)): 6.9 nM
Substance: anti-hCD226 antibody DX11

% positive [23]: 0.49%
% positive [24]: 0.27%
% positive [25]: 0.48%
% positive [26]: 0.18%
% positive [27]: 0.75%
% positive [28]: 0.42%
% positive [1]: 1.77%
% positive [2]: 2.05%
% positive [3]: 1.9%
% positive [4]: 2.34%
% positive [29]: 0.49%
% positive [30]: 0.14%
% positive [5]: 0.95%
% positive [6]: 1.42%
% positive [31]: 0.41%
% positive [32]: 0.11%
% positive [7]: 1.07%
% positive [8]: 1.5%
% positive [33]: 0.41%
% positive [34]: 0.06%
% positive [9]: 0.83%
% positive [10]: 1.09%
% positive [35]: 0.03%
% positive [11]: 1%
% positive [12]: 1.48%
% positive [13]: 0.76%
% positive [14]: 0.98%
CD155-Fc binding (MedFI) [15]: 71600 MedFI
CD155-Fc binding (MedFI) [16]: 71600 MedFI
CD155-Fc binding (MedFI) [17]: 66600 MedFI
CD155-Fc binding (MedFI) [18]: 76000 MedFI
CD155-Fc binding (MedFI) [19]: 64400 MedFI
CD155-Fc binding (MedFI) [20]: 65400 MedFI
CD155-Fc binding (MedFI) [21]: 64300 MedFI
Substance: muIgG1 control antibody

% positive [24]: 15.8%
% positive [26]: 21.5%
% positive [28]: 22%
% positive [1]: 5.4%
% positive [2]: 94.3%
% positive [3]: 4.9%
% positive [4]: 91.9%
% positive [30]: 4%
% positive [5]: 5.2%
% positive [6]: 76.7%
% positive [32]: 0.2%
% positive [7]: 4.7%
% positive [8]: 27.4%
% positive [34]: 0.1%
% positive [9]: 5.2%
% positive [10]: 2%
% positive [35]: 0.1%
% positive [11]: 5%
% positive [12]: 0.9%
% positive [13]: 4.5%
% positive [14]: 1.3%
EC50 [36]: 1.1 nM
EC50 [37]: 1.15 nM
EC50 [38]: 1.22 nM
Human NK cell IFNγ secretion (fold over background), Ab 0.08 nM [39]: 1.38 fold
Human NK cell IFNγ secretion (fold over background), Ab 0.4 nM [39]: 0.69 fold
Human NK cell IFNγ secretion (fold over background), Ab 2 nM [39]: 1.27 fold
Human NK cell IFNγ secretion (fold over background), Ab 10 nM [39]: 1.39 fold
Human NK cell IFNγ secretion (fold over background), Ab 50 nM [39]: 1.68 fold
Human NK cell IFNγ secretion (fold over background), Ab 250 nM [39]: 1.62 fold
Human NK cell IFNγ secretion, EC50 [39]: 5.53 nM
Human NK cell IFNγ secretion, maximal efficacy relative to h10G1 [39]: 61%
EC50 (hu-CD96D1 D3-hFc (human)): 0.98 nM
CD155-Fc binding (MedFI) [15]: 5040 MedFI
Kd [40]: 14.3 nM
CD155-Fc binding (MedFI) [16]: 5040 MedFI
CD155-Fc binding (MedFI) [17]: 40300 MedFI
CD155-Fc binding (MedFI) [18]: 5050 MedFI
CD155-Fc binding (MedFI) [19]: 62600 MedFI
CD155-Fc binding (MedFI) [20]: 69300 MedFI
CD155-Fc binding (MedFI) [21]: 64100 MedFI
Kd (hu-CD96 Fc (human)): 14.2 nM
koff (hu-CD96 Fc (human)): 0.0012 s⁻¹
kon (hu-CD96 Fc (human)): 84400 M⁻¹ s⁻¹
IC50 [41]: 0.91 nM
IC50 [42]: 2.57 nM
Substance: NK92.39 (antibody)
